Among the data in patent US5587468 are Kd values, retold here.

In this data set the target is HIV-1 integrase (Human immunodeficiency virus 1 (BH10)) (UniProt P03366). Description: FP filter.
The mark [1] stands for this setting: 50 mM NaCl, stated about same Kd as 30N RNA.
[2] abbreviates: nitrocellulose filter, 250 mM NaCl, printed as 20x10^-6, data not shown.

In general, Kd refers to the free concentration of one partner at which half of the binding sites on the other are occupied at equilibrium, for simple one-to-one binding. The low end stands for a tighter complex, the high end for a looser complex. On to U5 21-mer ds, for which the Kd was 25 nM under setting [1] and greater than 20000 nM under setting [2].

Turning to U5 21-mer ss, the Kd runs as follows: under setting [1], 25 nM; under setting [2], greater than 20000 nM.
